Measurements from US20240075137A1 (COMPUGEN, published 2024).
Like-named read-outs stand apart in the source and are kept apart here.

T1: human PVRIG on cells (human, UniProt Q6DKI7 1-326)
T1 construct: whole, on cells; over-expressed on HEK cells or endogenous on Jurkat and CD8 T cells; also called hPVRIG; HEK hPVRIG cells
T1 sequence (looked up): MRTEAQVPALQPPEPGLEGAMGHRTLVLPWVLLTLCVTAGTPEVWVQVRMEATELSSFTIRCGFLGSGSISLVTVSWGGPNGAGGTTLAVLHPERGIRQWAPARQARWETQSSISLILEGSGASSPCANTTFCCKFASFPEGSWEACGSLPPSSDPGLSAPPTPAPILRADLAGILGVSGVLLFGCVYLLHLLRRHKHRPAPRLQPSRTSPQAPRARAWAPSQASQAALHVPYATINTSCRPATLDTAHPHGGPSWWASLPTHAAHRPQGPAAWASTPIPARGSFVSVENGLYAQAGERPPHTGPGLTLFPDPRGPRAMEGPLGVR

T2: cynomolgus PVRIG on cells (cynomolgus, UniProt A0A2K5WVV8 41-322)
T2 construct: whole, on cells; also called cPVRIG; expi cPVRIG cells
T2 sequence: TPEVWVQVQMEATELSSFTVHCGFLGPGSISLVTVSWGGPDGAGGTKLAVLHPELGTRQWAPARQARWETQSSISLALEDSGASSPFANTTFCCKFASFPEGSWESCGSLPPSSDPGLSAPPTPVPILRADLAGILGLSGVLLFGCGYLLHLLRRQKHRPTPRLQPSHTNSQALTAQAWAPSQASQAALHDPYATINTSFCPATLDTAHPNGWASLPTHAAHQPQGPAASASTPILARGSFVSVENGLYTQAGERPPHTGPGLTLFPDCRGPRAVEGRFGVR

T3: PVRIG (FACS-based competition assay of FIGS. 7 and 15) (Homo sapiens, UniProt Q6DKI7)
T3 construct: made because the format of the assay is only described in U.S. Ser. No. 15/048,967; also called human PVRIG
T3 sequence (receptor, looked up): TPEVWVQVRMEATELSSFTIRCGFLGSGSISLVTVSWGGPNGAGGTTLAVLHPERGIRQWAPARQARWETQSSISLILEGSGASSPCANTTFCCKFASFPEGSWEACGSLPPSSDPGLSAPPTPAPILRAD


Experiments:
human PVRIG on cells [1] = target: T1, human PVRIG on cells; assay: FACS, HEK hPVRIG cells (HEK OE)
human PVRIG on cells [2] = target: T1, human PVRIG on cells; assay: FACS, human PBMC, CD8+ T cells, 10ug/ml
human PVRIG on cells [3] = target: T1, human PVRIG on cells; assay: FACS, human PBMC, CD8+ T cells, 10ug/ml; remark: listed apart in the source
human PVRIG on cells [4] = target: T1, human PVRIG on cells; assay: FACS, human PBMC, CD56 int. NK cells, 10ug/ml
human PVRIG on cells [5] = target: T1, human PVRIG on cells; assay: FACS, human PBMC, CD56 int. NK cells, 10ug/ml; remark: listed apart in the source
human PVRIG on cells [6] = target: T1, human PVRIG on cells; assay: FACS, Jurkat cells, relative to control, 3.3ug/ml
human PVRIG on cells [7] = target: T1, human PVRIG on cells; assay: FACS, HEK hPVRIG over HEK parental cells, 3.3ug/ml
[8] = target: T2, cynomolgus PVRIG on cells; assay: FACS, expi cPVRIG over expi parental cells, 3.3ug/ml
[9] = target: T2, cynomolgus PVRIG on cells; assay: as above; remark: listed apart in the source
[10] = target: T2, cynomolgus PVRIG on cells; assay: FACS, cyno PBMC, NK cells, 10ug/ml
[11] = target: T2, cynomolgus PVRIG on cells; assay: FACS, cyno PBMC, NK cells, 10ug/ml; remark: listed apart in the source
[12] = target: T2, cynomolgus PVRIG on cells; assay: FACS, cyno PBMC, CD8+ T cells, 10ug/ml
[13] = target: T2, cynomolgus PVRIG on cells; assay: FACS, cyno PBMC, CD8+ T cells, 10ug/ml; remark: listed apart in the source
human PVRIG on cells [14] = target: T1, human PVRIG on cells; assay: FACS, HEK hPVRIG cells (HEK OE); remark: listed apart in the source
human PVRIG on cells [15] = target: T1, human PVRIG on cells; assay: FACS, Jurkat cells, relative to control, 3.3ug/ml; remark: listed apart in the source
human PVRIG on cells [16] = target: T1, human PVRIG on cells; assay: FACS, HEK hPVRIG over HEK parental cells, 3.3ug/ml; remark: listed apart in the source
[17] = target: T3, PVRIG (FACS-based competition assay of …); assay: FACS-based competition assay of PVRIG blocking; format and competitor not given
[18] = target: T3, PVRIG (FACS-based competition assay of …); assay: as above; remark: listed apart in the source
human PVRIG on cells [19] = target: T1, human PVRIG on cells; assay: FACS, human PBMC, CD8+ T cells, 10ug/ml; remark: listed apart in the source
human PVRIG on cells [20] = target: T1, human PVRIG on cells; assay: FACS, human PBMC, CD56 int. NK cells, 10ug/ml; remark: listed apart in the source
[21] = target: T2, cynomolgus PVRIG on cells; assay: FACS, expi cPVRIG over expi parental cells, 3.3ug/ml; remark: listed apart in the source

Binder	gMFIr Human CD8+ T cells (human PVRIG on cells [2])	gMFIr Human CD8+ T cells (human PVRIG on cells [3])	gMFIr Human CD56 int. NK (human PVRIG on cells [4])	gMFIr Human CD56 int. NK (human PVRIG on cells [5])	gMFIr Expi cyno OE/par [8]	gMFIr Expi cyno OE/par [9]	gMFIr Cyno NK cells [10]	gMFIr Cyno NK cells [11]	gMFIr Cyno CD8+ T cells [12]	gMFIr Cyno CD8+ T cells [13]	EC50 (human PVRIG on cells [14]) [µM]	gMFIr Jurkat (human PVRIG on cells [15])	gMFIr HEK OE/par (human PVRIG on cells [16])	IC50 [17] [µM]	IC50 [18] [µM]	other results
CHA.7.544 (antibody, V domains shown) VH: QVQLKESGPGLVAPSQSLSITCTVSGFSLTSYAITWVRQPPGKGLEWLGVIWPGGGTNYNSALKSRLSISKDNSKSHLFLKMNSLQTDDTARYYCVRSYDGYLDWYFDVWGTGTTVTVSS VL: NIVMTQSPKSMSMSVGERVTLSCKASENVGTYVSWYQQKPDQSPKLLIYGASNRYTGVPDRFTGSGSATDFTLIISSVQAEDLSDYHCGQSYSYPYTFGGGTKLEII	2.54	2.54	2.36	2.36	61.1	61.1	–	–	–	–	–	–	–	–	–	EC50 (human PVRIG on cells [1]): 0.00076 µM; gMFIr Jurkat (human PVRIG on cells [6]): 5.68; gMFIr HEK OE/par (human PVRIG on cells [7]): 42.6
CHA.7.543 (antibody, V domains shown) VH: QVQLKESGPGLVAPSQSLSITCTVSGFSLSGYGIKWVRQPPGKGLEWLGTIWGDGSTDYNSALKSRLSISKDNSKSQVFLKMTSLQTDDTARYYCASDSLGITFGYWGQGTLVTVSA VL: DIQMTQTTSSLSASLGDRVTISCRASQDISNYLNWYQQKPDGTVKLLIYYTSRLHSGVPSRFSGSGSGTDYSLTISNLEQEDIATYFCQQGNTLPLTFGAGTKLELK	4.33	4.33	4.48	4.48	0.83	0.83	1.35	1.35	1.39	1.39	–	–	–	–	–	EC50 (human PVRIG on cells [1]): 0.00052 µM; gMFIr Jurkat (human PVRIG on cells [6]): 6.73; gMFIr HEK OE/par (human PVRIG on cells [7]): 49.8
CHA.7.530 (antibody, V domains shown) VH: QVQLQQSGAELMRPGTSVKVSCKASGYAFTNHLIEWIKQRPGQGLEWIGVINPGSDSTDYNEKFKDKATLTADKSSSTAYMQLSSLTSDDSAVYFCARSLYYNSWFVYWGQGTLVTVSA VL: DIQMTQSPASLSASVGETVTITCRASENIYSYLAWYQQKRGKSPQLLVYNAKTLVEGVPSRFSGSGSGTQFSLKINSLQPEDFGSYYCQHHYGTPYTFGGGTKLEIK	6.47	6.47	6.04	6.04	60.8	60.8	1.73	1.73	1.89	1.89	0.00033	8.04	51.1	0.0346	0.0346	–
CHA.7.537 (antibody, V domains shown) VH: QVQLKESGPGLVAPSQSLSITCTVSGFSLIGHGVNWIRQPPGKGLEWLGVIWGDGNTDYNSALKSRLSISKDNSKSQVFLKMNSLQTDDTARYFCAVNSAMDYWGQGTAVTVSS VL: NIVMTQSPKSMSMSVGERVTLNCTASENVASFVSWYQQKPEQSPKLLIYGTSNRYTGVPDRFTGSGSATDFTLTISSVQAEDLGDYHCGQSYNYPFTFGSGTKLEIE	3.41	3.41	3.9	3.9	1.55	1.55	1.18	1.18	1.19	1.19	0.00247	5.53	36.6	0.039	0.039	–
CHA.7.516 (antibody, V domains shown) VH: QVQLQQSGPELVRPGVSVKISCKVSGYTFTDYVMHWVKQSHAKSLEWIGIISPYSGNTNYNQNFKGKATMTVDKSSSTAYMALARLTSEDSAIYYCAREGDLPMFAYWGQGTLVTVSA VL: QIVLTQSPTIMSASPGEKVTMTCSASSSVSYIYWYQQNPGSSPRLLIYDTSILASGVPFRFSGSGSGTSYSLTISRMEAEDAATYYCQQWTSYPLTFGSGTKLELK	–	4.09	–	4.22	–	60	–	1.76	–	2.09	0.00079	5.73	37.9	0.0331	0.0331	gMFIr Human CD8+ T cells (human PVRIG on cells [19]): 4.09; gMFIr Human CD56 int. NK (human PVRIG on cells [20]): 4.22; gMFIr Expi cyno OE/par [21]: 60
CHA.7.524 (antibody, V domains shown) VH: QVQLQQSGPEVVRPGVSVKISCKGSGYKFPDYVMHWVKQSHAKSLEWIGIISIYSGNTNYNQKFKGKATMTVDKSSSTAYMELARLTSEDSAIYYCAREGDLPMFAYWGQGTLVTVSA VL: QIVLTQSPAIMSASPGEKVTMTCNASSSVSYMYWYQQKPISSPRLLIYDTSNLASGVPVRFSGSGSGTSYSLTIGRMEAEDAATYYCQQWSSYPLTFGAGTKVEVK	6.12	6.12	5.5	5.5	66.3	66.3	1.78	1.78	2.02	2.02	0.00046	7.87	48.3	0.0302	0.0302	–
CHA.7.528 (antibody, V domains shown) VH: EVQVQQSGPELVKPGASVKISCKASGYTFTKSNMHWVKQSHGKSLEWIGYIYPYNGGTGYNQNFKSKATLTVDISSSTAYMELRSLTLEDSAVYLCAREADYYGNRGQFDYWGQGTLVTVSA VL: DIQMTQSPASLSVSVGETVTITCRASDNIFSNLAWYHQKQGKSPHLLVYGATNLADGVPSRFSGSGSGTQYSLKINSLQSEDFGDYYCQHFWGTPYTFGGGTKLEIK	3.63	3.63	3.08	3.08	12.2	12.2	1.21	1.21	1.18	1.18	0.00731	6.17	44.9	0.0289	0.0289	–
